Results from the Human Domainome abundance scans (Beltran et al. 2025).
± gives the uncertainty stated by the source.

B1: Protein S100-G, residues 1 to 79; numbered along this chain, P02633 (parent)
chain: MSAKKSPEELKGIFEKYAAKEGDPNQLSKEELKLLLQTEFPSLLKGPSTLDELFEELDKNGDGEVSFEEFQVLVKKISQ

Variants of: B1
Experiment: abundance fitness (aPCA) (normalised: wild type 0, dead -1); higher = more abundant; growth selection in yeast, the domain comes from the species named
Conditions: Bos taurus

Variant | abundance fitness
MSAKKSPEELKGIFEKYAAKEGDPNQLSKEELKLLLQTEFPSLLKGPSTLDELFEELDKNGDGEVSFEEFQVLVGKISQ [K75G] | -0.022 ± 0.082
MSAKKSPEELKGIFEKYAAKEGDPNQLSKEELKLLLQTEFPSLLKGPSTLDELFEELDKNGDGEVSFEEFQVLVHKISQ [K75H] | 0.01 ± 0.078
MSAKKSPEELKGIFEKYAAKEGDPNQLSKEELKLLLQTEFPSLLKGPSTLDELFEELDKNGDGEVSFEEFQVLVQKISQ [K75Q] | -0.11 ± 0.083
MSAKKSPEELKGIFEKYAAKEGDPNQLSKEELKLLLQTEFPSLLKGPSTLDELFEELDKNGDGEVSFEEFQVLVDKISQ [K75D] | -0.063 ± 0.098
MSAKKSPEELKGIFEKYAAKEGDPNQLSKEELKLLLQTEFPSLLKGPSTLDELFEELDKNGDGEVSFEEFQVLVCKISQ [K75C] | -0.148 ± 0.092
MSAKKSPEELKGIFEKYAAKEGDPNQLSKEELKLLLQTEFPSLLKGPSTLDELFEELDKNGDGEVSFEEFQVLVRKISQ [K75R] | -0.074 ± 0.068
MSAKKSPEELKGIFEKYAAKEGDPNQLSKEELKLLLQTEFPSLLKGPSTLDELFEELDKNGDGEVSFEEFQVLVIKISQ [K75I] | -0.167 ± 0.081
MSAKKSPEELKGIFEKYAAKEGDPNQLSKEELKLLLQTEFPSLLKGPSTLDELFEELDKNGDGEVSFEEFQVLVLKISQ [K75L] | -0.045 ± 0.059
MSAKKSPEELKGIFEKYAAKEGDPNQLSKEELKLLLQTEFPSLLKGPSTLDELFEELDKNGDGEVSFEEFQVLVMKISQ [K75M] | -0.098 ± 0.079
MSAKKSPEELKGIFEKYAAKEGDPNQLSKEELKLLLQTEFPSLLKGPSTLDELFEELDKNGDGEVSFEEFQVLVPKISQ [K75P] | -0.186 ± 0.073
MSAKKSPEELKGIFEKYAAKEGDPNQLSKEELKLLLQTEFPSLLKGPSTLDELFEELDKNGDGEVSFEEFQVLVFKISQ [K75F] | -0.151 ± 0.075
MSAKKSPEELKGIFEKYAAKEGDPNQLSKEELKLLLQTEFPSLLKGPSTLDELFEELDKNGDGEVSFEEFQVLSKKISQ [V74S] | 0 ± 0.057
MSAKKSPEELKGIFEKYAAKEGDPNQLSKEELKLLLQTEFPSLLKGPSTLDELFEELDKNGDGEVSFEEFQVLQKKISQ [V74Q] | 0.102 ± 0.071
MSAKKSPEELKGIFEKYAAKEGDPNQLSKEELKLLLQTEFPSLLKGPSTLDELFEELDKNGDGEVSFEEFQVLCKKISQ [V74C] | -0.069 ± 0.077
MSAKKSPEELKGIFEKYAAKEGDPNQLSKEELKLLLQTEFPSLLKGPSTLDELFEELDKNGDGEVSFEEFQVLLKKISQ [V74L] | -0.018 ± 0.054
MSAKKSPEELKGIFEKYAAKEGDPNQLSKEELKLLLQTEFPSLLKGPSTLDELFEELDKNGDGEVSFEEFQVLRKKISQ [V74R] | -0.245 ± 0.061
MSAKKSPEELKGIFEKYAAKEGDPNQLSKEELKLLLQTEFPSLLKGPSTLDELFEELDKNGDGEVSFEEFQVLIKKISQ [V74I] | 0.066 ± 0.067
MSAKKSPEELKGIFEKYAAKEGDPNQLSKEELKLLLQTEFPSLLKGPSTLDELFEELDKNGDGEVSFEEFQVLWKKISQ [V74W] | 0.063 ± 0.082

Variant | abundance fitness
MSAKKSPEELKGIFEKYAAKEGDPNQLSKEELKLLLQTEFPSLLKGPSTLDELFEELDKNGDGEVSFEEFQVLNKKISQ [V74N] | -0.001 ± 0.071
MSAKKSPEELKGIFEKYAAKEGDPNQLSKEELKLLLQTEFPSLLKGPSTLDELFEELDKNGDGEVSFEEFQVLTKKISQ [V74T] | 0.024 ± 0.063
MSAKKSPEELKGIFEKYAAKEGDPNQLSKEELKLLLQTEFPSLLKGPSTLDELFEELDKNGDGEVSFEEFQVLDKKISQ [V74D] | -0.044 ± 0.083
MSAKKSPEELKGIFEKYAAKEGDPNQLSKEELKLLLQTEFPSLLKGPSTLDELFEELDKNGDGEVSFEEFQVLMKKISQ [V74M] | 0.016 ± 0.072
MSAKKSPEELKGIFEKYAAKEGDPNQLSKEELKLLLQTEFPSLLKGPSTLDELFEELDKNGDGEVSFEEFQVLKKKISQ [V74K] | 0.041 ± 0.078
MSAKKSPEELKGIFEKYAAKEGDPNQLSKEELKLLLQTEFPSLLKGPSTLDELFEELDKNGDGEVSFEEFQVLEKKISQ [V74E] | -0.004 ± 0.092
MSAKKSPEELKGIFEKYAAKEGDPNQLSKEELKLLLQTEFPSLLKGPSTLDELFEELDKNGDGEVSFEEFQVLGKKISQ [V74G] | -0.023 ± 0.071
MSAKKSPEELKGIFEKYAAKEGDPNQLSKEELKLLLQTEFPSLLKGPSTLDELFEELDKNGDGEVSFEEFQVYVKKISQ [L73Y] | -0.05 ± 0.086
MSAKKSPEELKGIFEKYAAKEGDPNQLSKEELKLLLQTEFPSLLKGPSTLDELFEELDKNGDGEVSFEEFQVRVKKISQ [L73R] | -0.473 ± 0.071
MSAKKSPEELKGIFEKYAAKEGDPNQLSKEELKLLLQTEFPSLLKGPSTLDELFEELDKNGDGEVSFEEFQVSVKKISQ [L73S] | -0.187 ± 0.072
MSAKKSPEELKGIFEKYAAKEGDPNQLSKEELKLLLQTEFPSLLKGPSTLDELFEELDKNGDGEVSFEEFQVTVKKISQ [L73T] | -0.071 ± 0.072
MSAKKSPEELKGIFEKYAAKEGDPNQLSKEELKLLLQTEFPSLLKGPSTLDELFEELDKNGDGEVSFEEFQVPVKKISQ [L73P] | -0.797 ± 0.087
MSAKKSPEELKGIFEKYAAKEGDPNQLSKEELKLLLQTEFPSLLKGPSTLDELFEELDKNGDGEVSFEEFQVNVKKISQ [L73N] | -0.273 ± 0.086
MSAKKSPEELKGIFEKYAAKEGDPNQLSKEELKLLLQTEFPSLLKGPSTLDELFEELDKNGDGEVSFEEFQVMVKKISQ [L73M] | -0.05 ± 0.082
MSAKKSPEELKGIFEKYAAKEGDPNQLSKEELKLLLQTEFPSLLKGPSTLDELFEELDKNGDGEVSFEEFQVVVKKISQ [L73V] | -0.017 ± 0.073
MSAKKSPEELKGIFEKYAAKEGDPNQLSKEELKLLLQTEFPSLLKGPSTLDELFEELDKNGDGEVSFEEFQVWVKKISQ [L73W] | 0.015 ± 0.093
MSAKKSPEELKGIFEKYAAKEGDPNQLSKEELKLLLQTEFPSLLKGPSTLDELFEELDKNGDGEVSFEEFQVQVKKISQ [L73Q] | -0.28 ± 0.082
